# From publication PMC8967028
# Molecular target: SARS-CoV-1 spike (S) receptor binding domain (SARS-CoV-1)
# Test: SPR
row,Substance,koff [s⁻¹]
1,"VHH-72-Fc S56M,L97W,T99V (Fc fusion)",0.00013
2,"VHH-72-Fc L97W,T99V (Fc fusion)",8e-05
3,"VHH-72-Fc S56M,L97W (Fc fusion)",0.0002
4,"VHH-72-Fc S56M,T99V (Fc fusion)",0.00016
5,VHH-72-Fc S56M (Fc fusion),0.00025
6,VHH-72-Fc L97W (Fc fusion),0.00018
7,VHH-72-Fc T99V (Fc fusion),0.00012
